From article PMC6098246, “Zinc(II) binding on human wild-type ISCU and Met140 variants modulates NFS1 desulfurase activity” (Biochimie, 2018)
Positions count from the first letter of the chain named. Numbers in names are those of the source.

B1: biotinylated human ISCU wild-type (Δ1-34) (natural protein, UniProt Q9H1K1 35-167, looked up)
chain: YHKKVVDHYENPRNVGSLDKTSKNVGTGLVGAPACGDVMKLQIQVDEKGKIVDARFKTFGCGSAIASSSLATEWVKGKTVEEALTIKNTDIAKELCLPPVKLHCSMLAEDAIKAALADYKLKQEPKKGEAEKK
modifications: biotin (site not stated)
notes: human ISCU, construct Δ1-34 of the 167-aa precursor (133-aa mature protein without the mitochondrial signal peptide); the two conditions are two assays; Measured mass of the apo-protein 14604 Da; also called ISCUWT; WT; source: E. coli BL21 (DE3)-R3-pRARE2, purified (Ni Sepharose, Superdex S75, His-tag removed by TEV)
B2: biotinylated human ISCU M140I (Δ1-34) (natural protein, UniProt Q9H1K1 35-167, looked up)
chain: B1 chain with M106I
modifications: biotin (site not stated)
notes: human ISCU, construct Δ1-34 of the 167-aa precursor, variant M140I; source: E. coli BL21 (DE3)-R3-pRARE2, purified (Ni Sepharose, Superdex S75, His-tag removed by TEV)
B3: biotinylated human ISCU M140L (Δ1-34) (natural protein, UniProt Q9H1K1 35-167, looked up)
chain: B1 chain with M106L
modifications: biotin (site not stated)
notes: human ISCU, construct Δ1-34 of the 167-aa precursor, variant M140L; source: E. coli BL21 (DE3)-R3-pRARE2, purified (Ni Sepharose, Superdex S75, His-tag removed by TEV)
B4: biotinylated human ISCU M140V (Δ1-34) (natural protein, UniProt Q9H1K1 35-167, looked up)
chain: B1 chain with M106V
modifications: biotin (site not stated)
notes: human ISCU, construct Δ1-34 of the 167-aa precursor, variant M140V; source: E. coli BL21 (DE3)-R3-pRARE2, purified (Ni Sepharose, Superdex S75, His-tag removed by TEV)

Molecular target: T1, NFS1-ISD11-ACP (SDA) complex (human | E. coli, UniProt Q9Y697 56-457; Q9HD34 1-91; P0A6A8 1-78)
T1 construct: human cysteine desulfurase NFS1, non-tagged, construct Δ1-55; human ISD11 (LYRM4), His-tagged; E. coli acyl carrier protein (ACP) of the expression host, co-purified with NFS1-ISD11; PLP was added during the purification; also called NFS1-ISD11-ACP desulfurase complex; NFS1-ISD11 complex; source: co-purified with E. coli ACP; copies: + +
T1 sequence (Q9Y697 56-457, chain 1 of 3): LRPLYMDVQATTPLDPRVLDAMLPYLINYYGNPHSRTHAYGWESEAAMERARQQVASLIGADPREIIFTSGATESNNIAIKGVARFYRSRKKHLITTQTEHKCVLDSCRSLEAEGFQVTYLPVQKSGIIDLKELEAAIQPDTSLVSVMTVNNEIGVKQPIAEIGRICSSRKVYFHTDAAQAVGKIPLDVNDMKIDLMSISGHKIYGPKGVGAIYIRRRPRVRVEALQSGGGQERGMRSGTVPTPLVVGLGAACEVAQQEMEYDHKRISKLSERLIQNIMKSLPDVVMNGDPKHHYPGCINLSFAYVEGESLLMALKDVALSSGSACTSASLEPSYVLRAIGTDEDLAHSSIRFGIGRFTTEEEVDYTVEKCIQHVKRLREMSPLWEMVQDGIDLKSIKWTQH
T1 sequence (Q9HD34 whole entry, chain 2 of 3): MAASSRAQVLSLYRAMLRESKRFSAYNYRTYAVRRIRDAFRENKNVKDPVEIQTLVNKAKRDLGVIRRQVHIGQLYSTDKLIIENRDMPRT
T1 sequence (P0A6A8 whole entry, chain 3 of 3): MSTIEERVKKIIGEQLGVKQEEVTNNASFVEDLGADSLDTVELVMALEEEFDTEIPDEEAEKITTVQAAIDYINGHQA
Test: BLI; biotinylated ISCU on streptavidin sensors, SDA 10 uM to 1.56 nM in solution; 25 °C; 50 mM HEPES pH 7.5, 200 mM NaCl, 5% glycerol, 2 mM TCEP, 5 mM DTT, 0.5 mg/mL BSA, with 100 uM ZnCl2 (zinc-bound ISCU); Kd from response vs. [NFS1], one site-specific binding fit
Conditions: both partners purified

Row | Binder | Kd [nM]
1 | B1 | 160
2 | B2 | 194
3 | B3 | 181
4 | B4 | 218

Molecular target: T1, NFS1-ISD11-ACP (SDA) complex
Test: BLI; biotinylated ISCU on streptavidin sensors, SDA 10 uM to 1.56 nM in solution; 25 °C; 50 mM HEPES pH 7.5, 200 mM NaCl, 5% glycerol, 2 mM TCEP, 5 mM DTT, 0.5 mg/mL BSA, with 300 uM EDTA (zinc-depleted ISCU); Kd from response vs. [NFS1], one site-specific binding fit
Conditions: both partners purified

Row | Binder | Kd [nM]
5 | B1 | 87.8
6 | B2 | 97.3
7 | B3 | 110
8 | B4 | 85.5
